In data set [1] the target is T1, Rec114(325-428);Mei4(1-90) (Saccharomyces cerevisiae;Saccharomyces cerevisiae) (UniProt P32841+P29467).
T1 sequence 1: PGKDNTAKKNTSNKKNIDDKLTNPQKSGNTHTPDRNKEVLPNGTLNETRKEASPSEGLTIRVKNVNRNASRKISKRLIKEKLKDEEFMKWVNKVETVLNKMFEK
T1 sequence 2: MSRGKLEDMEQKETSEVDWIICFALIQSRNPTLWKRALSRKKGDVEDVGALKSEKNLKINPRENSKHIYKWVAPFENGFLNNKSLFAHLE
Nature of the data set: EMSA. Conditions: EMSA: 25 mM Tris-HCl pH 7.4, 100 mM NaCl, 5 ng DNA, 20 min, room temperature; AFM: 25 mM HEPES-NaOH pH 7.4, 5 mM MgCl2, 50 mM NaCl, 10% glycerol, 30 min, RT ….

In data set [2] the target is T2, Rec114(386-428);Mei4N (Saccharomyces cerevisiae;Saccharomyces cerevisiae) (UniProt P32841+P29467).
T2 sequence 1: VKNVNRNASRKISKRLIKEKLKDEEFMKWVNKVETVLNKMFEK
T2 sequence 2: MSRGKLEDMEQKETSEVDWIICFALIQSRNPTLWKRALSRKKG
Nature of the data set: EMSA. Conditions: EMSA: 25 mM Tris-HCl pH 7.4, 100 mM NaCl, 5 ng DNA, 20 min, room temperature; AFM: 25 mM HEPES-NaOH pH 7.4, 5 mM MgCl2, 50 mM NaCl, 10% glycerol, 30 min, RT ….

Data set [3] has as its target T3, Rec114(388-428) K399A/R400A;Mei4N K399A;R400A (Saccharomyces cerevisiae;Saccharomyces cerevisiae) (UniProt P32841+P29467).
T3 sequence 1: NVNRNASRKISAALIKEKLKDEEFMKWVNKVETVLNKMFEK
T3 sequence 2: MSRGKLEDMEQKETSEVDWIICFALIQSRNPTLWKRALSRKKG
Nature of the data set: EMSA. The note with it: EMSA: 25 mM Tris-HCl pH 7.4, 100 mM NaCl, 5 ng DNA, 20 min, room temperature; AFM: 25 mM HEPES-NaOH pH 7.4, 5 mM MgCl2, 50 mM NaCl, 10% glycerol, 30 min, RT …. For orientation: A gel shift assay detects complexes by their altered migration in electrophoresis.

Data set [4] deals with T4, Rec114(388-428) K403A/K407A;Mei4N K403A;K407A (Saccharomyces cerevisiae;Saccharomyces cerevisiae) (UniProt P32841+P29467).
T4 sequence 1: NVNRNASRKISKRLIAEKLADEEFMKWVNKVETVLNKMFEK
T4 sequence 2: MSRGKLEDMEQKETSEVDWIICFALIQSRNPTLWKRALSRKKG
The data set is described as follows: EMSA. The note with it: EMSA: 25 mM Tris-HCl pH 7.4, 100 mM NaCl, 5 ng DNA, 20 min, room temperature; AFM: 25 mM HEPES-NaOH pH 7.4, 5 mM MgCl2, 50 mM NaCl, 10% glycerol, 30 min, RT ….

Data set [5] addresses T5, Rec114(388-428) K417A/K424A;Mei4N K417A;K424A (Saccharomyces cerevisiae;Saccharomyces cerevisiae) (UniProt P32841+P29467).
T5 sequence 1: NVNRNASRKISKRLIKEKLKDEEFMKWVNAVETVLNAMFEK
T5 sequence 2: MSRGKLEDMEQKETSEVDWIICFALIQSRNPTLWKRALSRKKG
Nature of the data set: EMSA. Conditions: EMSA: 25 mM Tris-HCl pH 7.4, 100 mM NaCl, 5 ng DNA, 20 min, room temperature; AFM: 25 mM HEPES-NaOH pH 7.4, 5 mM MgCl2, 50 mM NaCl, 10% glycerol, 30 min, RT ….

Data set [6] deals with T6, Rec114(388-428) R395A/K396A;Mei4N R395A;K396A (Saccharomyces cerevisiae;Saccharomyces cerevisiae) (UniProt P32841+P29467).
T6 sequence 1: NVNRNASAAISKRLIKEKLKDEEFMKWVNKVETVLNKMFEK
T6 sequence 2: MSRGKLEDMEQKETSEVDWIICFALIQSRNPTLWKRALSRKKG
The data set is described as follows: EMSA. The note with it: EMSA: 25 mM Tris-HCl pH 7.4, 100 mM NaCl, 5 ng DNA, 20 min, room temperature; AFM: 25 mM HEPES-NaOH pH 7.4, 5 mM MgCl2, 50 mM NaCl, 10% glycerol, 30 min, RT ….

In data set [7] the target is T7, Rec114(388-428);Mei4(13-43) (Saccharomyces cerevisiae;Saccharomyces cerevisiae) (UniProt P32841+P29467).
T7 sequence 1: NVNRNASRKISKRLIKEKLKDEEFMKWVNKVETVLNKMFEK
T7 sequence 2: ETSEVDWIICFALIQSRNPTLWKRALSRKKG
The data set is described as follows: EMSA. Conditions: EMSA: 25 mM Tris-HCl pH 7.4, 100 mM NaCl, 5 ng DNA, 20 min, room temperature; AFM: 25 mM HEPES-NaOH pH 7.4, 5 mM MgCl2, 50 mM NaCl, 10% glycerol, 30 min, RT ….

The target in data set [8] is T8, Rec114(388-428);Mei4N (Saccharomyces cerevisiae;Saccharomyces cerevisiae) (UniProt P32841+P29467).
T8 sequence 1: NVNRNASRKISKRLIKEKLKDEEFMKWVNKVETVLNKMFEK
T8 sequence 2: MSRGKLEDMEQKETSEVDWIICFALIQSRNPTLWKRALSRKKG
Nature of the data set: EMSA. The note with it: EMSA: 25 mM Tris-HCl pH 7.4, 100 mM NaCl, 5 ng DNA, 20 min, room temperature; AFM: 25 mM HEPES-NaOH pH 7.4, 5 mM MgCl2, 50 mM NaCl, 10% glycerol, 30 min, RT ….

Data set [9] addresses T9, Rec114C;Mei4N (Saccharomyces cerevisiae;Saccharomyces cerevisiae) (UniProt P32841+P29467).
T9 sequence 1: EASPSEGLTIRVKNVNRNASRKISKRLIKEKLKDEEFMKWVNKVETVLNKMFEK
T9 sequence 2: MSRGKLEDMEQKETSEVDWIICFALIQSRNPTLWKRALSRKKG
Nature of the data set: EMSA. The note with it: EMSA: 25 mM Tris-HCl pH 7.4, 100 mM NaCl, 5 ng DNA, 20 min, room temperature; AFM: 25 mM HEPES-NaOH pH 7.4, 5 mM MgCl2, 50 mM NaCl, 10% glycerol, 30 min, RT ….

Data set [10] concerns the target T10, Rec114C;Mei4N-ybbR (Saccharomyces cerevisiae;Saccharomyces cerevisiae) (UniProt P32841+P29467).
T10 sequence 1: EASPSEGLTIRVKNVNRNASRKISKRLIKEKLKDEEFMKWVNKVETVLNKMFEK
T10 sequence 2: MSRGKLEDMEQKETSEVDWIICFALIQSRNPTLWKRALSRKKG
The data set is described as follows: EMSA. Conditions: EMSA: 25 mM Tris-HCl pH 7.4, 100 mM NaCl, 5 ng DNA, 20 min, room temperature; AFM: 25 mM HEPES-NaOH pH 7.4, 5 mM MgCl2, 50 mM NaCl, 10% glycerol, 30 min, RT ….

The target in data set [11] is T11, Rec114C;Mei4N-ybbR-LD650 (Saccharomyces cerevisiae;Saccharomyces cerevisiae) (UniProt P32841+P29467).
T11 sequence 1: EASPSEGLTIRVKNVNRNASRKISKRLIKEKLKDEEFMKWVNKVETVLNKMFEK
T11 sequence 2: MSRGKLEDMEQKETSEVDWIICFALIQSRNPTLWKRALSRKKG
Nature of the data set: EMSA. Conditions: EMSA: 25 mM Tris-HCl pH 7.4, 100 mM NaCl, 5 ng DNA, 20 min, room temperature; AFM: 25 mM HEPES-NaOH pH 7.4, 5 mM MgCl2, 50 mM NaCl, 10% glycerol, 30 min, RT ….

Data set [12] deals with T12, mREC114C;mMEI4N (Mus musculus;Mus musculus) (UniProt Q9CWH4+Q8BRM6).
T12 sequence 1: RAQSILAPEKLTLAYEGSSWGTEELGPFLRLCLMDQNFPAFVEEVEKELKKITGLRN
T12 sequence 2: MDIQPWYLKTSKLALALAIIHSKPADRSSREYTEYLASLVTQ
The data set is described as follows: EMSA. The note with it: EMSA: 25 mM Tris-HCl pH 7.4, 100 mM NaCl, 5 ng DNA, 20 min, room temperature; AFM: 25 mM HEPES-NaOH pH 7.4, 5 mM MgCl2, 50 mM NaCl, 10% glycerol, 30 min, RT ….

Data set [13] addresses T13, Rec114C;Mei4N (Saccharomyces cerevisiae;Saccharomyces …, UniProt P32841;P29467 375-428;1-43, |).
T13 sequence 1: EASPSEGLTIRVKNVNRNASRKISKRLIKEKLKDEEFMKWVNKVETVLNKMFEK
T13 sequence 2: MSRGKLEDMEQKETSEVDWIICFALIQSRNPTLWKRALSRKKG
The data set is described as follows: EMSA; C50; EMSA: 25 mM Tris-HCl pH 7.4, 100 mM NaCl, 5 ng DNA, 20 min, room temperature; AFM: 25 mM HEPES-NaOH pH 7.4, 5 mM MgCl2, 50 mM NaCl, 10% glycerol, 30 min, RT; optical trap: same buffer plus 5 nM SYTOX Orange, RT. Conditions: protein: recombinant;recombinant; tags: 6xHis-SUMO removed by Ulp1 (tagged chain);6xHis-SUMO removed by Ulp1 when on this chain; chain copies: 2;1; blunt.

Data set [14] concerns the target T13, Rec114C;Mei4N. The data set is described as follows: EMSA; C50; main text gives ~800 nM; EMSA: 25 mM Tris-HCl pH 7.4, 100 mM NaCl, 5 ng DNA, 20 min, room temperature; AFM: 25 mM HEPES-NaOH pH 7.4, 5 mM MgCl2, 50 mM NaCl, 10% glycerol, 30 min, RT; optical trap: same buffer plus 5 nM SYTOX Orange, RT. Conditions: protein: recombinant;recombinant; tags: 6xHis-SUMO removed by Ulp1 (tagged chain);6xHis-SUMO removed by Ulp1 when on this chain; chain copies: 2;1; blunt.

Consider “ATCTGGCTCGCCTGACGGGATGCGACGAATTTTCGCCGCCCCATAAAGTACGCCCACGACTCGTTCGCACTGGCCCGTGCCGTGGAGTAGCTCATCTGGGCGTAATTCCGGGAAAGCTGCTCATACGAGACACCCAGCCCGGCAGCGATAT (double strand) [150-bp DNA]”, for which the K half in data set [1] worked out at 90 nM; in [2], 110 nM; in [3], 2000 nM; in data set [4] it was 1000 nM; in [5], 900 nM; in data set [6], 1000 nM. Moreover, the K half in data set [7] came out at 100 nM; in data set [8] it was 110 nM; in data set [9], 90 nM; in data set [10] it was 90 nM; in data set [11], 90 nM. Besides, in [12], the binding result is listed as “binds more weakly”.

B1: dsDNA80 (dsDNA)
DNA 1: CTAGTATAGAGCCGGCGCGCCATGTCTAGATAGCGTTAGGTCTGCCGAATAGTACTACTCGGATCCCGAGCGAACCACGC
DNA 2: GCGTGGTTCGCTCGGGATCCGAGTAGTACTATTCGGCAGACCTAACGCTATCTAGACATGGCGCGCCGGCTCTATACTAG
With B1, in the data set with Rec114C;Mei4N [13], the “apparent K (half saturation)” value amounted to 100 ± 20 nM.

B2: dsDNA20 (dsDNA)
DNA 1: AAAGATGTCCTAGCAATGTA
DNA 2: TACATTGCTAGGACATCTTT
On to B2, for which the “apparent K (half saturation)” value with Rec114C;Mei4N [14] is 600 ± 100 nM.

The values above are taken from PMC10393192, “Structure and DNA-bridging activity of the essential Rec114–Mei4 trimer interface”.
